Source: PMC3388944

Target: T1, GST-IE(1-1487) (immediate-early protein IEP, full length) (Equine herpesvirus 1, UniProt P17473 1-1487)
T1 sequence: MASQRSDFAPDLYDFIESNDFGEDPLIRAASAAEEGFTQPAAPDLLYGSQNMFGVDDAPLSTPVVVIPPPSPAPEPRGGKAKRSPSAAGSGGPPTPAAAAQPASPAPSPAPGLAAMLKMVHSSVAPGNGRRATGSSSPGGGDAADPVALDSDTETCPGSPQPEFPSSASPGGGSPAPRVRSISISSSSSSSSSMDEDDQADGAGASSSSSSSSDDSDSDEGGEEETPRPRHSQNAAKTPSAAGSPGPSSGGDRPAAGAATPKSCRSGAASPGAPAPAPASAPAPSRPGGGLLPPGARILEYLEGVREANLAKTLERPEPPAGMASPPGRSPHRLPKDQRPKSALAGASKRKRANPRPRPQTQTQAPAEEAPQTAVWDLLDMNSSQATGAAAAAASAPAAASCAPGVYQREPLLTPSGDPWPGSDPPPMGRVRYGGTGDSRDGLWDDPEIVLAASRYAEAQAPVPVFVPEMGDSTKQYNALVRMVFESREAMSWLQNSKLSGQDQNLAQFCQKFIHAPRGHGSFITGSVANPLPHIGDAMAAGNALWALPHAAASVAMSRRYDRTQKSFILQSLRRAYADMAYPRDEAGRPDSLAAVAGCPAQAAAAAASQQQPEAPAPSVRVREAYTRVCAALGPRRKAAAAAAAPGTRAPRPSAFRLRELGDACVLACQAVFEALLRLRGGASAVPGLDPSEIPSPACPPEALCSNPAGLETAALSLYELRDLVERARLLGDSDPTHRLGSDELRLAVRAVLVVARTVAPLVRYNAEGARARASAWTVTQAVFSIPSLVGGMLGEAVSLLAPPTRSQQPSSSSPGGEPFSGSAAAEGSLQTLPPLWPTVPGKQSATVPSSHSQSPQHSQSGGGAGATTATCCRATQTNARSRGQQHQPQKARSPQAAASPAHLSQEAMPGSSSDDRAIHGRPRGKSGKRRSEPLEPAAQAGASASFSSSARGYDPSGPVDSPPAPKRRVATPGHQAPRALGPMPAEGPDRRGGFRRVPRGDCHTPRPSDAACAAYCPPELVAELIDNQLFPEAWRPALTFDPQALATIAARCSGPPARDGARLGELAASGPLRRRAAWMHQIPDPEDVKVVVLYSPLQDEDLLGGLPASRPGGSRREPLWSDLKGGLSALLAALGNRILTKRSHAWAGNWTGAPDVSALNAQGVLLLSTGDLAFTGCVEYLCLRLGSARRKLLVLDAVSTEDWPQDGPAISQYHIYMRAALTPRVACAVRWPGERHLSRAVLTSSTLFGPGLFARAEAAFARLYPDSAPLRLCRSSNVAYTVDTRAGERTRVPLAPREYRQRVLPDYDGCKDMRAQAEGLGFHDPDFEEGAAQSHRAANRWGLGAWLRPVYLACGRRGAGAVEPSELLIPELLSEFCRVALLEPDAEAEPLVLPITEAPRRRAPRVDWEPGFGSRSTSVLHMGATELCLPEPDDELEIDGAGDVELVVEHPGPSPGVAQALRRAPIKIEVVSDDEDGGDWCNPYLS
Assay: EMSA

B1: wtIEBS probe (IE promoter -16 to +22) (dsDNA)
DNA 1: TTGCTTACCCATCGTAGCATCGCGGACTAGAGAGCCTT
DNA 2: TTAAGGCTCTCTAGTCCGCGATGCTACGATGGGTAAGC
B1: binds.
